The text below walks through data of patent US20250213666A1 (UNIVERSITY OF CINCINNATI, published 2025).

For the experiment, the target named is T1, Intimin-spike fusion protein (Intimin-Spike-RBD) surface displayed on E. coli Nissle 1917 (SARS-CoV-2).
T1 construct: also called pInt-spike; pInt-Spike-RBD
Kind of experiment: cell aggregation assay (OD600) of nanobody-bearing EcN with spike-bearing EcN.

B1: Lpp-OmpA-VHH72 nanobody (pLpp-OmpA-VHH72), surface displayed on E. coli Nissle 1917 or on its OMVs (VHH)
chain: CSSNAKIDQGINNNGPTHENQLGAGAFGGYQVNPYVGFEMGYDWLGRMPYKGSVENGAYKAQGVQLTAKLGYPITDDLDIYTRLGGMVWRADTKSNVYGKNHDTGVSPVFAGGVEYAITPEIATRKLENLYFQGTRQVQLQESGGGLVQAGGSLRLSCAASGRTFSEYAMGWFRQAPGKEREFVATISWSGGSTYYTDSVKGRFTISRDNAKNTVYLQMNSLKPDDTAVYYCAAAGLGTVVSEWDYDYDYWGQGTQVTVSSGSGSENLYFQGDYKDDDDKWSHPQFEKSR
notes: also called pLpp-OmpA-VHH72 Nb; Lpp-OmpA-VHH72 Nb
For the molecule B1, the binding result is “no binding”.
